Assay results from patent US20140087995A1 (published 2014).
Numbered stars: 1 amine (or outer) side, 2 acyl side, 3 side chain; on linkers, the order of the positions; unused ones are H or OH. Bridge positions count the residues as written; N and C are the ends. Side chains are listed from the residue outwards. Ends that are not written are not given here. * marks the point of attachment. C20 diacid = O=C(O)CCCCCCCCCCCCCCCCCCC(=O)*; γGlu = O=C(O)[C@H](CCC(=O)[*:2])N[*:1]

B1: N^α1-[2-[2-[2-[[2-[2-[2-[[(4S)-4-carboxy-4-(19-carboxynonadecanoylamino)butanoyl]amino]ethoxy]ethoxy]acetyl]amino]ethoxy]ethoxy]acetyl]-[Arg17,Pro21,Pro27]-h-am … (peptide)
peptide: KCNTATCATQRLANFLRHSSPNFGAIPSSTNVGSNTY
modifications: C20 diacid-gGlu-2xOEG on the alpha amino group of the N-terminal residue; disulfide bridge Cys2-Cys7; C-terminal amide
notes: also called compound 24
B2: N^α1-[(4S)-4-carboxy-4-(19-carboxynonadecanoylamino)butanoyl]-[Arg17,Pro21,Pro27,Lys35]-h-amylin (peptide)
peptide: KCNTATCATQRLANFLRHSSPNFGAIPSSTNVGSKTY
modifications: C20 diacid-gGlu on the alpha amino group of the N-terminal residue; disulfide bridge Cys2-Cys7; C-terminal amide
notes: also called compound 34
B3: N^α1-[(4S)-4-carboxy-4-(19-carboxynonadecanoylamino)butanoyl]-[Arg17,Pro21,Pro27,Pro34,Glu35]-h-amylin (peptide)
peptide: {C20 diacid-γGlu}-KCNTATCATQRLANFLRHSSPNFGAIPSSTNVGPETY-NH2
modifications: disulfide 2-7
SMILES: CC[C@H](C)[C@H](NC(=O)[C@H](C)NC(=O)CNC(=O)[C@H](Cc1ccccc1)NC(=O)[C@H](CC(N)=O)NC(=O)[C@@H]1CCCN1C(=O)[C@H](CO)NC(=O)[C@H](CO)NC(=O)[C@H](Cc1c[nH]cn1)NC(=O)[C@H](CCCNC(=N)N)NC(=O)[C@H](CC(C)C)NC(=O)[C@H](Cc1ccccc1)NC(=O)[C@H](CC(N)=O)NC(=O)[C@H](C)NC(=O)[C@H](CC(C)C)NC(=O)[C@H](CCCNC(=N)N)NC(=O)[C@H](CCC(N)=O)NC(=O)[C@@H](NC(=O)[C@H](C)NC(=O)[C@@H]1CSSC[C@H](NC(=O)[C@H](CCCCN)NC(=O)CC[C@H](NC(=O)CCCCCCCCCCCCCCCCCCC(=O)O)C(=O)O)C(=O)N[C@@H](CC(N)=O)C(=O)N[C@@H]([C@@H](C)O)C(=O)N[C@@H](C)C(=O)N[C@@H]([C@@H](C)O)C(=O)N1)[C@@H](C)O)C(=O)N1CCC[C@H]1C(=O)N[C@@H](CO)C(=O)N[C@@H](CO)C(=O)N[C@H](C(=O)N[C@@H](CC(N)=O)C(=O)N[C@H](C(=O)NCC(=O)N1CCC[C@H]1C(=O)N[C@@H](CCC(=O)O)C(=O)N[C@H](C(=O)N[C@@H](Cc1ccc(O)cc1)C(N)=O)[C@@H](C)O)C(C)C)[C@@H](C)O
notes: also called compound 29

Assays:
[1] = molecular target: T1, human calcitonin receptor (human, UniProt P30988 25-474); assay: SPA competition binding, displacement of 125I-calcitonin from membranes with human calcitonin receptor (Assay VII)
T1 construct: whole, on cells; Membranes in a scintillation proximity assay (Assay VII); also called hCTR; hCT
T1 sequence (looked up): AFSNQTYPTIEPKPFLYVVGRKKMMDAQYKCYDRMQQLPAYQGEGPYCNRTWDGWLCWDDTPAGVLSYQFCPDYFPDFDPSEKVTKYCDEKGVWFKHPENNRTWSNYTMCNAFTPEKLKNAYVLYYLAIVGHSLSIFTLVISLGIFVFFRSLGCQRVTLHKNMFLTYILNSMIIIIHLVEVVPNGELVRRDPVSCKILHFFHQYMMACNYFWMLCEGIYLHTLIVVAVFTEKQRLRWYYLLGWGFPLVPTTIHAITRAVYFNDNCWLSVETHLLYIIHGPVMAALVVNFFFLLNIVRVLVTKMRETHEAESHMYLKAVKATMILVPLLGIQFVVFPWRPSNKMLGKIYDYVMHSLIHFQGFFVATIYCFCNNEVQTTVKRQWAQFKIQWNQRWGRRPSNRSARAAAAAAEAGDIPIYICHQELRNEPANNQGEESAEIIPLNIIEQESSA
Description: Membranes were prepared in the following way; the cells were rinsed with PBS and incubated with Versene for approximately 5 min before harvesting. The cells were flushed with PBS and the cell-suspension was centrifuged for 5 min at 1000 rpm. Cells were homogenized (Ultrathurrax) in a buffer containing 20 mM Na-HEPES and 10 mM EDTA (pH 7.4) and centrifuged at 20.000 rpm for 15 min. The resulting pellet was resuspended, homogenized and centrifuged (20.000 rpm, 15 min) in a buffer containing 20 mM Na-HEPES and 0.1 mM EDTA (pH 7.4, buffer 2). The resulting pellet was resuspended in buffer 2 and protein concentration was measured (BCA protein Assay, Pierce). The homogenate was kept cold during the whole procedure. The membranes were kept at −80° C. until use. Assay was performed in a 384 well Optiplate (PerkinElmer) in a total volume of 40 ul. Membranes were mixed with SPA beads. Final concentration of membranes 35 ng/μL final and Final concentration of SPA beads was 0.05 mg/well. Test-compounds were dissolved in DMSO and further diluted in assay buffer (50 mM Hepes, pH 7.4, 1 mM CaCl2, 5 mM MgCl₂, 0.1% OA and 0.02% Tween20). […] The final mixture was incubated for 120 min with shaking at 400 rpm at 25° C. prior to centrifugation (1500 rpm, 10 min). Samples were analyzed on TopCounter™ (Packard). The […] was calculated using (one site binding competition analysis) GraphPad Prism5 as a measure of receptor affinity.

[2] = molecular target: T1, human calcitonin receptor; assay: ratio of IC50 at human calcitonin receptor to IC50 at human amylin receptor (reference), SPA binding assays
Description: The resulting pellet was resuspended, homogenized and centrifuged (20.000 rpm, 15 min) in a buffer containing 20 mM Na-HEPES and 0.1 mM EDTA (pH 7.4, buffer 2). The resulting pellet was resuspended in buffer 2 and protein concentration was measured (BCA protein Assay, Pierce). The homogenate was kept cold during the whole procedure. The membranes were kept at −80° C. until use. The assay was performed in a 384 well Optiplate (PerkinElmer) in a total volume of 40 ul. Membranes were mixed with SPA beads. Final concentration of membranes 35 ng/μL final and SPA beads was 0.05 mg/well. Test-compounds were dissolved in DMSO and further diluted in assay buffer (50 mM Hepes, pH 7.4, 1 mM CaCl2, 5 mM MgCl₂, 0.1% OA and 0.02% Tween20). […] The final mixture was incubated with shaking at 400 rpm for 120 min at 25° C. prior to centrifugation (1500 rpm, 10 min). Samples were analyzed on TopCounter™ (Packard). The IC₅₀ was calculated using (one site binding competition analysis) GraphPad Prism5 as a measure of receptor affinity.
Membranes were prepared in the following way; the cells were rinsed with PBS and incubated with Versene for approximately 5 min before harvesting. The cells were flushed with PBS and the cell-suspension was centrifuged for 5 min at 1000 rpm. Cells were homogenized (Ultrathurrax) in a buffer containing 20 mM Na-HEPES and 10 mM EDTA (pH 7.4) and centrifuged at 20.000 rpm for 15 min. The resulting pellet was resuspended, homogenized and centrifuged (20.000 rpm, 15 min) in a buffer containing 20 mM Na-HEPES and 0.1 mM EDTA (pH 7.4, buffer 2). The resulting pellet was resuspended in buffer 2 and protein concentration was measured (BCA protein Assay, Pierce). The homogenate was kept cold during the whole procedure. The membranes were kept at −80° C. until use. Assay was performed in a 384 well Optiplate (PerkinElmer) in a total volume of 40 ul. Membranes were mixed with SPA beads.

[3] = molecular target: T2, human amylin receptor (amylin 3(a) receptor: human calcitonin receptor plus RAMP-3) (human, UniProt P30988 25-474; O60896 24-148); assay: SPA competition binding, membranes with human amylin 3(a) receptor, displacement of 125I-rat amylin (Assay V)
T2 construct: whole, on cells; the species of RAMP-3 is told only through the name 'human amylin receptor'; also called hAmylin-R; hAmylinR
T2 sequence (looked up) 1: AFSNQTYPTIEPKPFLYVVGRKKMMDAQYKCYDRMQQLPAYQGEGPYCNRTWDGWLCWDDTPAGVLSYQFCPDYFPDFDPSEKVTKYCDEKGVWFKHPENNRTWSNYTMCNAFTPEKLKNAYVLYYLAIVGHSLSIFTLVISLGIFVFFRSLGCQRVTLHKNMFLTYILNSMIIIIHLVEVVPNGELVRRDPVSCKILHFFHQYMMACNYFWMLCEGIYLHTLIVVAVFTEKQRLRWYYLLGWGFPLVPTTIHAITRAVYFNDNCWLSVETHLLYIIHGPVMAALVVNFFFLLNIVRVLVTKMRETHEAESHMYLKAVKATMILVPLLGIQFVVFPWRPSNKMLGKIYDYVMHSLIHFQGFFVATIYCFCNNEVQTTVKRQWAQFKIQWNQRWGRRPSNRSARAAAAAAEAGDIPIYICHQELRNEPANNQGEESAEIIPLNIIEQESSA
T2 sequence (looked up) 2: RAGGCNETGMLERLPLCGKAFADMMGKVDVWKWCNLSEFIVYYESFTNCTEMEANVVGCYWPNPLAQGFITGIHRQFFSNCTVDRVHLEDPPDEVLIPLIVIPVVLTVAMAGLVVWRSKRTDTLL
Description: The binding assay was performed using scintillation proximity assay (SPA) beads (RPNQ0001) from PerkinElmer and cell membranes from the Amylin 3(a)/CRE-luc cells (as described in Assay (II)) were used. Membranes were prepared in the following way; the cells were rinsed with PBS and incubated with Versene for approximately 5 min before harvesting. The cells were flushed with PBS and the cell-suspension was centrifuged for 5 min at 1000 rpm. Cells were homogenized (ultrathurrax) in a buffer containing 20 mM Na-HEPES and 10 mM EDTA (pH 7.4) and centrifuged at 20.000 rpm for 15 min. The resulting pellet was resuspended, homogenized and centrifuged (20.000 rpm, 15 min) in a buffer containing 20 mM Na-HEPES and 0.1 mM EDTA (pH 7.4, buffer 2). The resulting pellet was resuspended in buffer 2 and protein concentration was measured (BCA protein Assay, Pierce). The homogenate was kept cold during the whole procedure. The membranes were kept at −80° C. until use. The assay was performed in a 384 well Optiplate (PerkinElmer) in a total volume of 40 ul. Membranes were mixed with SPA beads. Final concentration of membranes 35 ng/μL final and SPA beads was 0.05 mg/well. Test-compounds were dissolved in DMSO and further diluted in assay buffer (50 mM Hepes, pH 7.4, 1 mM CaCl2, 5 mM MgCl₂, 0.1% OA and 0.02% Tween20). […] The final mixture was incubated with shaking at 400 rpm for 120 min at 25° C. prior to centrifugation (1500 rpm, 10 min). Samples were analyzed on TopCounter™ (Packard). The IC₅₀ was calculated using (one site binding competition analysis) GraphPad Prism5 as a measure of receptor affinity.

[4] = molecular target: T3, human calcitonin receptor (human, UniProt P30988 25-474); assay: SPA competition binding, membranes with human calcitonin receptor, displacement of 125I-calcitonin (Assay VII)
T3 construct: whole, on cells; also called hCTR; hCT
T3 sequence (looked up): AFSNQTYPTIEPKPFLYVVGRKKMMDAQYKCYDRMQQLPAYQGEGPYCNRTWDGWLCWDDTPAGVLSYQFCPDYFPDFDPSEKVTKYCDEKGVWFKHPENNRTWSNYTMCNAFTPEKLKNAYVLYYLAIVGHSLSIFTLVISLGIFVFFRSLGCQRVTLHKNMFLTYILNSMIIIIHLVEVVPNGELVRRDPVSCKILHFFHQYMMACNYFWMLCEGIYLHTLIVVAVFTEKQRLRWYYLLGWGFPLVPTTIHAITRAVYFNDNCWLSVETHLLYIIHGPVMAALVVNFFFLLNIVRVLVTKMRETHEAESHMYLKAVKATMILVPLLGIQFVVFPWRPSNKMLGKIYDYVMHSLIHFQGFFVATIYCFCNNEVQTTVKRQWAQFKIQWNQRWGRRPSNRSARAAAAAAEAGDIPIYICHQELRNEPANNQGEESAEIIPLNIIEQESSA
Outline: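 BHK hCTR membranes 35 ng/μL + SPA beads 0.05 mg/well; buffer 50 mM Hepes pH 7.4, 1 mM CaCl2, 5 mM MgCl₂, 0.1% OA, 0.02% Tween20. 120 min, 25° C., shaking. Scintillation count; IC50 by one-site binding competition.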

[5] = molecular target: T3, human calcitonin receptor; assay: ratio of IC50 at hCTR to IC50 at the human amylin receptor (reference)
Outline: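 Scintillation proximity competition binding on cell membranes at 35 ng/μL with SPA beads, in 50 mM Hepes pH 7.4, 1 mM CaCl2, 5 mM MgCl₂, 0.1% OA, 0.02% Tween20. Incubated 120 min at 25° C with shaking. IC₅₀ from one-site competition fit.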

Row | Binder | IC50 [1] [nM] | Ratio hCT/hAmylin binding [2] | IC50 [3] [nM] | IC50 [4] [nM] | Ratio hCT/hAmylin binding [5]
1 | K([γGlu-γGlu-C20 diacid])CNTATCATQRLADFLRHSSPNFGAIPSSTNVGPRTY-NH2 (disulfide 2-7 (inferred), also called compound 130) | 127 | 280 | – | – | –
2 | K([γGlu-C20 diacid])CNTATCATQRLADFLRHSSPNFGAIPSSTNVGPRTY-NH2 (disulfide 2-7 (inferred)) | 42.5 | 151 | – | – | –
3 | K([γGlu-C20 diacid])CNTATCATQRLAEFLRHSSPNFGAIPSSTNVGSHTY-NH2 (disulfide 2-7 (inferred)) | 26.1 | 26.4 | – | – | –
4 | K([γGlu-γGlu-C20 diacid])CNTATCATQRLAEFLRHSSPNFGAIPSSTNVGPNTF-NH2 (disulfide 2-7 (inferred)) | 2.73 | 18 | – | – | –
5 | K([γGlu-C20 diacid])CNTATCATQRLADFLRHSSPNFGAIPSSTNVGPETY-NH2 (disulfide 2-7 (inferred)) | 3.27 | 16.7 | – | – | –
6 | K([γGlu-γGlu-C20 diacid])CNTATCATQRLAEFLRHSSPNFGAIPSSTNVGPHTY-NH2 (disulfide 2-7 (inferred)) | 10.3 | 27.3 | – | – | –
7 | B1 | – | – | 1.14 | 102 | 90
8 | B2 | – | – | 1.14 | 73.4 | 64.4
9 | B3 | – | – | 0.577 | 8.01 | 13.9
